Measurements as given in publication PMC9475207, “Neural crest cell-placodal neuron interactions are mediated by Cadherin-7 and N-cadherin during early chick trigeminal ganglion assembly” (F1000Research, 2022).

T1: N-cadherin GFP11 (chick, UniProt P10288 165-912)
T1 construct: Synthesized by GenScript; also called N-cad GFP11; N-cad GFP 11; source: CHO cells, transfected, in cells; chick embryo, electroporated in ovo into trigeminal placode cells; not shown: split GFP subunit 11 (GFP11), N-terminal, kept
T1 sequence (looked up): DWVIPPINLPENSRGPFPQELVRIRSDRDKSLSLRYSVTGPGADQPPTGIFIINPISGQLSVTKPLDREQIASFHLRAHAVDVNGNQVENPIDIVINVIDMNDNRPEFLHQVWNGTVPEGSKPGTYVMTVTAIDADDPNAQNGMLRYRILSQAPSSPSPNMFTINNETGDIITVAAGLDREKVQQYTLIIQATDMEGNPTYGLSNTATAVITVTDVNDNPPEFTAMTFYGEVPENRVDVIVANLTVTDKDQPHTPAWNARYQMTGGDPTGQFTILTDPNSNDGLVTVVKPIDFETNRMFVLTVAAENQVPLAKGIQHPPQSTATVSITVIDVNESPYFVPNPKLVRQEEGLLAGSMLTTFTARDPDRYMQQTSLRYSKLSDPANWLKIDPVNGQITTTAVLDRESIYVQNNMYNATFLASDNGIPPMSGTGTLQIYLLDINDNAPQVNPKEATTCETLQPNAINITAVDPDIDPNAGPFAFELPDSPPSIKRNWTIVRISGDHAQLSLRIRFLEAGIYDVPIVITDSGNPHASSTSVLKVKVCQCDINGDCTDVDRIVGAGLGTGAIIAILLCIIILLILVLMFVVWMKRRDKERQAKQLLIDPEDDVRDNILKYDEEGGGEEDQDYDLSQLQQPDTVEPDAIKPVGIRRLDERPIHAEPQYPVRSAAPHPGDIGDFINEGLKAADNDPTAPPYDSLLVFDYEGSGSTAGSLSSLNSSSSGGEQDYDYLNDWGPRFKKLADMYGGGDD

B1: N-cadherin GFP1-10 (natural protein, chick, UniProt P10288 165-912, looked up)
chain: DWVIPPINLPENSRGPFPQELVRIRSDRDKSLSLRYSVTGPGADQPPTGIFIINPISGQLSVTKPLDREQIASFHLRAHAVDVNGNQVENPIDIVINVIDMNDNRPEFLHQVWNGTVPEGSKPGTYVMTVTAIDADDPNAQNGMLRYRILSQAPSSPSPNMFTINNETGDIITVAAGLDREKVQQYTLIIQATDMEGNPTYGLSNTATAVITVTDVNDNPPEFTAMTFYGEVPENRVDVIVANLTVTDKDQPHTPAWNARYQMTGGDPTGQFTILTDPNSNDGLVTVVKPIDFETNRMFVLTVAAENQVPLAKGIQHPPQSTATVSITVIDVNESPYFVPNPKLVRQEEGLLAGSMLTTFTARDPDRYMQQTSLRYSKLSDPANWLKIDPVNGQITTTAVLDRESIYVQNNMYNATFLASDNGIPPMSGTGTLQIYLLDINDNAPQVNPKEATTCETLQPNAINITAVDPDIDPNAGPFAFELPDSPPSIKRNWTIVRISGDHAQLSLRIRFLEAGIYDVPIVITDSGNPHASSTSVLKVKVCQCDINGDCTDVDRIVGAGLGTGAIIAILLCIIILLILVLMFVVWMKRRDKERQAKQLLIDPEDDVRDNILKYDEEGGGEEDQDYDLSQLQQPDTVEPDAIKPVGIRRLDERPIHAEPQYPVRSAAPHPGDIGDFINEGLKAADNDPTAPPYDSLLVFDYEGSGSTAGSLSSLNSSSSGGEQDYDYLNDWGPRFKKLADMYGGGDD
notes: Synthesized by GenScript; also called N-cad GFP1-10; N-cad GFP 1-10; source: CHO cells, transfected, in cells; chick embryo, electroporated in ovo into trigeminal placode cells; not shown: split GFP subunits 1-10 (GFP1-10), N-terminal, kept
B2: Cadherin-7 GFP11 (natural protein, chick, UniProt Q90763 48-785, looked up)
chain: SWVWNQFFVLEEYMGSDPLYVGKLHSDVDKGDGSIKYILSGEGASSIFIIDENTGDIHATKRLDREEQAYYTLRAQAHDRLTNKPVEPESEFVIKIQDINDNEPKFLDGPYTAGVPEMSPVGTSVVQVTATDADDPTYGNSARVVYSILQGQPYFSVEPKTGIIKTALPNMDREAKDQYLLVIQAKDMVGQNGGLSGTTSVTVTLTDVNDNPPRFPRRSYQYNVPESLPLASVVARIKAADADVGPNAEMEYKIVDGDGLGVFKISVDKDTQEGIITIQKELDFEAKTSYTLRIEAANMHVDPRFLSLGPFSDMTTVKIIVEDVDEPPVFTSRLYSMVVSEAAKVGTIIGTVAAHDPDASNSPVRYSIDRNTDLERYFNIDANSGVITTAKSLDRETNAVHNITVLAMESQNPAQIGRGYVAITILDINDNAPEFAMEYETTVCENAQPGQIIQKISAIDKDDPPNGHQFYFSLTAEAANNHNFTLQDNKDNTATVLTRRNGFRRQEQSVFYLPIFIVDSGSPSLSSTNTLTIRVCDCDADGIAQTCNAEAYILPAGLSTGALIAILACVLTLLVLVLLIVTMRRRKKEPLIFDEERDIRENIVRYDDEGGGEEDTEAFDMAALRNLNIIRDTKTRRDVTPEIQFLSRPTFKSIPDNVIFREFIWERLKEADVDPCAPPYDSLQTYAFEGNGSVAESLSSLDSISSNSDQNYDYLSDWGPRFKRLADMYGSGPDCLYS
notes: Synthesized by GenScript; also called Cad7 GFP11; Cad711; source: CHO cells, transfected, in cells; chick embryo, electroporated in ovo into premigratory neural crest cells; not shown: split GFP subunit 11 (GFP11), N-terminal, kept

Tests used:
Experiment in all cases: split reporter (BiFC, NanoBiT); GRASP (split GFP1-10 / GFP11 on the cadherin extracellular domain); both constructs co-transfected into CHO cells (in cis); GFP fluorescence by confocal imaging, GFP+ cells/DAPI+ cells
Settings in all cases: partners not purified
N-cadherin GFP11 = target: T1, N-cadherin GFP11
Cadherin-7 GFP11 = target: B2
N-cadherin GFP1-10 = target: B1

| percent GFP-positive cells (GFP+ cells/DAPI+ cells) (N-cadherin GFP11) | percent GFP-positive cells (GFP+ cells/DAPI+ cells) (Cadherin-7 GFP11) | percent GFP-positive cells (GFP+ cells/DAPI+ cells) (N-cadherin GFP1-10) | Binder |
| --- | --- | --- | --- |
| 13.2% | – | – | B1 |
| 8.9% | 10.5% | – | Cadherin-7 GFP1-10 (natural protein, chick, UniProt Q90763 48-785, looked up, Synthesized by GenScript; also called Cad7 GFP1-10; source: CHO cells, transfected, in cells; chick embryo, electroporated in ovo into premigratory neural crest cells; not shown: split GFP subunits 1-10 (GFP1-10), N-terminal, kept) SWVWNQFFVLEEYMGSDPLYVGKLHSDVDKGDGSIKYILSGEGASSIFIIDENTGDIHATKRLDREEQAYYTLRAQAHDRLTNKPVEPESEFVIKIQDINDNEPKFLDGPYTAGVPEMSPVGTSVVQVTATDADDPTYGNSARVVYSILQGQPYFSVEPKTGIIKTALPNMDREAKDQYLLVIQAKDMVGQNGGLSGTTSVTVTLTDVNDNPPRFPRRSYQYNVPESLPLASVVARIKAADADVGPNAEMEYKIVDGDGLGVFKISVDKDTQEGIITIQKELDFEAKTSYTLRIEAANMHVDPRFLSLGPFSDMTTVKIIVEDVDEPPVFTSRLYSMVVSEAAKVGTIIGTVAAHDPDASNSPVRYSIDRNTDLERYFNIDANSGVITTAKSLDRETNAVHNITVLAMESQNPAQIGRGYVAITILDINDNAPEFAMEYETTVCENAQPGQIIQKISAIDKDDPPNGHQFYFSLTAEAANNHNFTLQDNKDNTATVLTRRNGFRRQEQSVFYLPIFIVDSGSPSLSSTNTLTIRVCDCDADGIAQTCNAEAYILPAGLSTGALIAILACVLTLLVLVLLIVTMRRRKKEPLIFDEERDIRENIVRYDDEGGGEEDTEAFDMAALRNLNIIRDTKTRRDVTPEIQFLSRPTFKSIPDNVIFREFIWERLKEADVDPCAPPYDSLQTYAFEGNGSVAESLSSLDSISSNSDQNYDYLSDWGPRFKRLADMYGSGPDCLYS |
| – | – | 5.76% | B2 |
